Assay results from paper PMC7532149, “Antibiotic export by MexB multidrug efflux transporter is allosterically controlled by a MexA-OprM chaperone-like complex” (Nature Communications, 2020).

B2: OprM (natural protein)
chain: CSLIPDYQRPEAPVAAAYPQGQAYGQNTGAAAVPAADIGWREFFRDPQLQQLIGVALENNRDLRVAALNVEAFRAQYRIQRADLFPRIGVDGSGTRQRLPGDLSTTGSPAISSQYGVTLGTTAWELDLFGRLRSLRDQALEQYLATEQAQRSAQTTLVASVATAYLTLKADQAQLQLTKDTLGTYQKSFDLTQRSYDVGVASALDLRQAQTAVEGARATLAQYTRLVAQDQNALVLLLGSGIPANLPQGLGLDQTLLTEVPAGLPSDLLQRRPDILEAEHQLMAANASIGAARAAFFPSISLTANAGTMSRQLSGLFDAGSGSWLFQPSINLPIFTAGSLRASLDYAKIQKDINVAQYEKAIQTAFQEVADGLAARGTFTEQLQAQRDLVKASDEYYQLADKRYRTGVDNYLTLLDAQRSLFTAQQQLITDRLNQLTSEVNLYKALGGGWNQQTVTQQQTAKKEDPQA
notes: OprM, outer-membrane factor of the MexAB-OprM efflux system of Pseudomonas aeruginosa; Homotrimer; also called OprM-ND; outer-membrane factor (OMF); source: reconstituted in POPC nanodiscs (MSP1D1) or DOPC proteoliposomes

What was measured:
Experiment in all cases: cryo-EM structure; tripartite MexAB-OprM complex self-assembled from MexA and MexB in POPC nanodiscs and OprM in POPC nanodiscs; 10 mM Tris/Cl pH 7.4, 100 mM NaCl; enriched by SEC (Superose 6, detergent-free buffer); single-particle analysis, no symmetry imposed
[1] = biological target: the molecule itself
[2] = biological target: T1, MexA (Pseudomonas aeruginosa), P52477; settings: remark: other sources report otherwise
T1 chain: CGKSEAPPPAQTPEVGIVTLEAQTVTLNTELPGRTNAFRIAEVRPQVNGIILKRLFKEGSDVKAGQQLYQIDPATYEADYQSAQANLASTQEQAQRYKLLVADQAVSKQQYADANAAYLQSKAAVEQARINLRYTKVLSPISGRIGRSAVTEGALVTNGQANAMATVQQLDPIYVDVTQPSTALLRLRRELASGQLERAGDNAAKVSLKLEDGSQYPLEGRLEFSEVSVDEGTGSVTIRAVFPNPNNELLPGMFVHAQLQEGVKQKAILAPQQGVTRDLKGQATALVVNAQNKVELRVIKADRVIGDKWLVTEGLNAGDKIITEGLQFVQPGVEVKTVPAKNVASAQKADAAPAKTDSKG

OprM = biological target: B2; settings: both partners purified

B1: MexB (natural protein)
chain: MSKFFIDRPIFAWVIALVIMLAGGLSILSLPVNQYPAIAPPAIAVQVSYPGASAETVQDTVVQVIEQQMNGIDNLRYISSESNSDGSMTITVTFEQGTDPDIAQVQVQNKLQLATPLLPQEVQRQGIRVTKAVKNFLMVVGVVSTDGSMTKEDLSNYIVSNIQDPLSRTKGVGDFQVFGSQYSMRIWLDPAKLNSYQLTPGDVSSAIQAQNVQISSGQLGGLPAVKGQQLNATIIGKTRLQTAEQFENILLKVNPDGSQVRLKDVADVGLGGQDYSINAQFNGSPASGIAIKLATGANALDTAKAIRQTIANLEPFMPQGMKVVYPYDTTPVVSASIHEVVKTLGEAILLVFLVMYLFLQNFRATLIPTIAVPVVLLGTFGVLAAFGFSINTLTMFGMVLAIGLLVDDAIVVVENVERVMAEEGLSPREAARKSMGQIQGALVGIAMVLSAVFLPMAFFGGSTGVIYRQFSITIVSAMALSVIVALILTPALCATMLKPIEKGDHGEHKGGFFGWFNRMFLSTTHGYERGVASILKHRAPYLLIYVVIVAGMIWMFTRIPTAFLPDEDQGVLFAQVQTPPGSSAERTQVVVDSMREYLLEKESSSVSSVFTVTGFNFAGRGQSSGMAFIMLKPWEERPGGENSVFELAKRAQMHFFSFKDAMVFAFAPPSVLELGNATGFDLFLQDQAGVGHEVLLQARNKFLMLAAQNPALQRVRPNGMSDEPQYKLEIDDEKASALGVSLADINSTVSIAWGSSYVNDFIDRGRVKRVYLQGRPDARMNPDDLSKWYVRNDKGEMVPFNAFATGKWEYGSPKLERYNGVPAMEILGEPAPGLSSGDAMAAVEEIVKQLPKGVGYSWTGLSYEERLSGSQAPALYALSLLVVFLCLAALYESWSIPFSVMLVVPLGVIGALLATSMRGLSNDVFFQVGLLTTIGLSAKNAILIVEFAKELHEQGKGIVEAAIEACRMRLRPIVMTSLAFILGVVPLAISTGAGSGSQHAIGTGVIGGMVTATVLAIFWVPLFYVAVSTLFKDEASKQQASVEKGQ
notes: MexB, inner-membrane RND multidrug efflux transporter of Pseudomonas aeruginosa; wild type; Homotrimer, both alone in the nanodisc (MexB-solo, LTC form) and in the tripartite complex (MexB-trio, LTO form); also called MexB-solo; MexB-trio; source: reconstituted in POPC nanodiscs (MSP1E3D1) or DOPC/cholesterol proteoliposomes
- stoichiometry N [1]: 3

Binder: B2
- stoichiometry N [1]: 3

B3: MexA, P52477 24-383 (natural protein)
chain: CGKSEAPPPAQTPEVGIVTLEAQTVTLNTELPGRTNAFRIAEVRPQVNGIILKRLFKEGSDVKAGQQLYQIDPATYEADYQSAQANLASTQEQAQRYKLLVADQAVSKQQYADANAAYLQSKAAVEQARINLRYTKVLSPISGRIGRSAVTEGALVTNGQANAMATVQQLDPIYVDVTQPSTALLRLRRELASGQLERAGDNAAKVSLKLEDGSQYPLEGRLEFSEVSVDEGTGSVTIRAVFPNPNNELLPGMFVHAQLQEGVKQKAILAPQQGVTRDLKGQATALVVNAQNKVELRVIKADRVIGDKWLVTEGLNAGDKIITEGLQFVQPGVEVKTVPAKNVASAQKADAAPAKTDSKG
modifications: here or on the partner: lipid moiety of the N-terminal cysteine; lipid moiety of the N-terminal cysteine
- stoichiometry N [2]: 6

B4: MexA (natural protein)
chain: CGKSEAPPPAQTPEVGIVTLEAQTVTLNTELPGRTNAFRIAEVRPQVNGIILKRLFKEGSDVKAGQQLYQIDPATYEADYQSAQANLASTQEQAQRYKLLVADQAVSKQQYADANAAYLQSKAAVEQARINLRYTKVLSPISGRIGRSAVTEGALVTNGQANAMATVQQLDPIYVDVTQPSTALLRLRRELASGQLERAGDNAAKVSLKLEDGSQYPLEGRLEFSEVSVDEGTGSVTIRAVFPNPNNELLPGMFVHAQLQEGVKQKAILAPQQGVTRDLKGQATALVVNAQNKVELRVIKADRVIGDKWLVTEGLNAGDKIITEGLQFVQPGVEVKTVPAKNVASAQKADAAPAKTDSKG
modifications: lipid moiety of the N-terminal cysteine
notes: MexA, periplasmic membrane fusion lipoprotein of Pseudomonas aeruginosa; N-terminal cysteine carries a lipid moiety; Six copies (a hexamer of two non-equivalent protomers, MexA-I and MexA-II) stand in the tripartite complex; also called MexA-I; MexA-II; source: reconstituted with MexB in POPC nanodiscs or DOPC/cholesterol proteoliposomes
- stoichiometry N (OprM): 2 MexA per OprM
